According to patent publication US20020028482A1, “NIP45 HUMAN HOMOLOG” (priority 1997, published 2002):
Each block holds one molecule with its values, some of them ahead of it.

Tests used:
LacZ = LacZ (Escherichia coli, UniProt P00722); conditions: LacZ substrate
Description: (1) CPRG is used rather than ONPG. […] In assays SmM (10×Km) is used which we take to be approximately saturating.
Grow yeast cultures overnight. Dilute back to OD 0.05 to 0.1 next day and allow to continue growing. When they have reached an OD of about 1, make a set of dilutions in culture medium. Add 120 ul of each dilution to the wells of a microtitre plate. Start the reaction by addition of 30 ul reaction buffer and measure the initial rate of reaction (kinetic read over 10 minutes).

hNFAT1 = molecular target: T1, hNFAT1 (Homo sapiens, UniProt Q13469); test: yeast two hybrid assay, interaction with hNFAT1; assay type: binding; conditions: colonies, FIG. 11 and FIG. 12
T1 construct: contains the coding region for 400-692 amino acid residues of hNFAT 1; expressed in transfected cells; host or cells: yeast strain EGY48/p8op-lacZ
T1 sequence (Q13469 400-692): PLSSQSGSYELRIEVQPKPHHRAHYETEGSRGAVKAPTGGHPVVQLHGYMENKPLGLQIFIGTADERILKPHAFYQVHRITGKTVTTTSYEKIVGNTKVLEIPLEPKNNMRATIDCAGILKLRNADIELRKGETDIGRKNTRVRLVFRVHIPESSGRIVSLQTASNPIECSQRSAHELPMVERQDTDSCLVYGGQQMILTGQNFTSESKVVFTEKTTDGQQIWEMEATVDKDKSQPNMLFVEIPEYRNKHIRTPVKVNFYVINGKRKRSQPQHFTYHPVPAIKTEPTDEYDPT
From the text: A 879 bp DNA fragment, corresponding to positions 1418-2296 of hNFAT1 nucleic acid sequence (GenBank Accession number U43342), was PCR amplified via standard methods using Clontech human lymph node Marathon Ready cDNA as template. CLONTECH, Palo Alto, Calif. The resulting PCR product was cloned into the bait vector, plexA-BD (CLONTECH). The hybrid construct (plexA-BD-hNFAT1-BD) contains the coding region for 400-692 amino acid residues of hNFAT 1, which corresponds to the DNA binding region of the hNFAT 1 protein. The full length hNIP45H cNDA was cloned into prey vector pB42AD (CLONTECH). This hybrid construct (pB42AD-hNIP45H) contains the entire open reading frame of […].
Yeast strain EGY48/p8op-lacZ (CLONTECH) was transformed with the plexA-BD-hNFAT1-BD plasmid. […] Yeast strain EGY/p8op-lacZ/plexA-BD-hNFAT1-BD was subsequently transformed with pB42AD-hNIP45H prey construct. Transformants from SD/-UHW plates were subsequently tested on a 4-plate test (SD/-UHW, X-gal vs. GR/-UHW, X-gal, and SD/-UHWL vs. GR/-UHWL).

HepG2 cells = conditions: overexpression in HepG2 cells; cited from earlier work
mNFATp = test: yeast two hybrid assay, interaction with mNFATp; assay type: binding, murine; conditions: colonies, FIG. 11 and FIG. 12
Description: An hNIP45 AD-fusion construct is co-transformed into the yeast host EGY48 (CLONTECH, cat # K1609-1) with the original murine LexA-NFATp bait and reporter, pSH18-34 (CLONTECH, cat# K1609-1). The functional conservation of hNIP45 is assessed by its ability of interacting with the NFATp protein to activate the reporter gene expression. Hodge, M., et al., NF-AT-Driven Interleukin-4 Transcription Potentiated by NIP45, Science, 274:1903 (1996). See, Example VI infra.

Chain of mNFATp (Q60591 394-576 limits assumed): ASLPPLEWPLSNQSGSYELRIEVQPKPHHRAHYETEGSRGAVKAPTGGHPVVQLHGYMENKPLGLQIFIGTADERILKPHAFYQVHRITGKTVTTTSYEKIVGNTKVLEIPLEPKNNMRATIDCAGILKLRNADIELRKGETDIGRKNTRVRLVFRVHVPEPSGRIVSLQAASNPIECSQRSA
Chain of LacZ (P00722 whole entry): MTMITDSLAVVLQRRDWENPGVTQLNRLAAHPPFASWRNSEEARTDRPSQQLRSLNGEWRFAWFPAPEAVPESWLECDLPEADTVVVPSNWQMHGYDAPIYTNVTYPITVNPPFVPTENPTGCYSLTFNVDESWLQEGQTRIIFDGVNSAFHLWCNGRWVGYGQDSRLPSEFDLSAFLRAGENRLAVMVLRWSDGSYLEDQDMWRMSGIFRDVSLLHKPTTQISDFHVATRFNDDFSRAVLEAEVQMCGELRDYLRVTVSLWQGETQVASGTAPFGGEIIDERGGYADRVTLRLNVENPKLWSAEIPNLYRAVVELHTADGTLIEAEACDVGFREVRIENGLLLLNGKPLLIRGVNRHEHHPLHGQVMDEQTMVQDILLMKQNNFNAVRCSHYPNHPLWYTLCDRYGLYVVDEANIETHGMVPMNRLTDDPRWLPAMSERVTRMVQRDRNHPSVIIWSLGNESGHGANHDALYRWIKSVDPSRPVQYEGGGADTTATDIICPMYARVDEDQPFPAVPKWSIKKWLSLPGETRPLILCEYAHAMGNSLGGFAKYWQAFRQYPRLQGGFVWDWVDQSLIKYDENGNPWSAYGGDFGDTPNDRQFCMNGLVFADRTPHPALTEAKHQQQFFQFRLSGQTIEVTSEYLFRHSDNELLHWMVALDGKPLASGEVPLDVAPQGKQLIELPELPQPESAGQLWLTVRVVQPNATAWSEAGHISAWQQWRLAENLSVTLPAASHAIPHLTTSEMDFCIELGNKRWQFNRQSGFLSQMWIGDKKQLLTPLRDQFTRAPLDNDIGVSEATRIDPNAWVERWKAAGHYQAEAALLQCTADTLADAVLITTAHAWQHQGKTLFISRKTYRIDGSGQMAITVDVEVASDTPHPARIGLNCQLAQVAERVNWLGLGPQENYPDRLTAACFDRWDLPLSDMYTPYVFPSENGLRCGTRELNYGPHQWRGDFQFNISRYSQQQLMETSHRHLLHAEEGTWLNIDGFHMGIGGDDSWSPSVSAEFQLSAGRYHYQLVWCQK

Molecule: O=S1(=O)OC(c2ccc(O)c(Cl)c2)(c2ccc(O[C@@H]3O[C@H](CO)[C@H](O)[C@H](O)[C@H]3O)c(Cl)c2)c2ccccc21 (stereo partly drawn) [CPRG, Chlorophenol red-b-D-galacopyranoside]
Km (LacZ): ~500 µM

interaction with hNFAT1 (hNFAT1): interacts well
B1: hNIP45: novel human NIP45 polypeptide, 419 amino acid residues, SEQ ID NO:3, IL-4 transcriptional trans-activator (protein, listed as Homo sapiens)
chain: MAEPVGKRGRWSGGSGAGRGGRGGWGGRGRRPRAQRSPSRGTLDVVSVDLVTDSDEEILEVATARGAADEVEVEPPEPPGPVASRDNSNSDSEGEDRRPAGPPREPVRRRRRLVLDPGEAPLVPVYSGKVKSSLRLIPDDLSLLKLYPPGDEEEAELADSSGLYHEGSPSPGSPWKTKLRTKDKEEKKKTEFLDLDNSPLSPPSPRTKSRTHTRALKKLSEVNKRLQDLRSCLSPKPPQGQEQQGQEDEVVLVEGPTLPETPRLFPLKIRCRADLVRLPLRMSEPLQSVVDHMATHLGVSPSRILLLFGETELSPTATPRTLKLGVADIIDCVVLTSSPEATETSQQLQLRVQGKEKHQTLEVSLSRDSPLKTLMSHYEEAMGLSGRKLSFFFDGTKLSGRELPADLGMESGDLIEVWG

interaction with hNFAT1 (hNFAT1): does not interact with hNFAT1 very well
B2: mNIP45: murine NIP45, NF-ATp interacting protein, 412 amino acid residues, SEQ ID NO:4 (protein, listed as Mus musculus)
chain: MAEPLRGRGPRSRGGRGARRARGARGRCPRARQSPARLIPDTVLVDLVSDSDEEVLEVADPVEVPVARLPAPAKPEQDSDSDSEGAAEGPAGAPRTLVRRRRRRLLDPGEAPVVPVYSGKVQSSLNLIPDNSSLLKLCPSEPEDEADLTNSGSSPSEDDALPSGSPWRKKLRKKCEKEEKKMEEFPDQDISPLPQPSSRNKSRKHTEALQKLREVNKRLQDLRSCLSPKQHQSPALQSTDDEVVLVEGPVLPQSSRLFTLKIRCRADLVRLPVRMSEPLQNVVDHMANHLGVSPNRILLLFGESELSPTATPSTLKLGVADIIDCVVLASSSEATETSQELRLRVQGKEKHQMLEISLSPDSPLKVLMSHYEEAMGLSGHKLSFFFDGTKLSGKELPADLGLESGDLIEVWG
increase of endogenous IL-4 production (HepG2 cells): 200 fold
interaction with mNFATp (mNFATp): interacts well
